From article PMC10397247
Each block holds one binder with its values, some of them ahead of it.

Experiments:
O9-bA = molecular target: T1, O9-bA; test: two-hybrid library CCNG1;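 note: natural log of median RNA to DNA barcode read ratio; higher means stronger binding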
T1 chain: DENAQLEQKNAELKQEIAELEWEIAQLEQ

O7-bA = molecular target: T2, O7-bA; test: two-hybrid library CCNG1;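 note: natural log of median RNA to DNA barcode read ratio; higher means stronger binding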
T2 chain: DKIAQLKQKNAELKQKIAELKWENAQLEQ

O6-bA = molecular target: T3, O6-bA; test: two-hybrid library CCNG1;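 note: natural log of median RNA to DNA barcode read ratio; higher means stronger binding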
T3 chain: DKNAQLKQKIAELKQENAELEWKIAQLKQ

O8-bA = molecular target: T4, O8-bA; test: two-hybrid library CCNG1;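 note: natural log of median RNA to DNA barcode read ratio; higher means stronger binding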
T4 chain: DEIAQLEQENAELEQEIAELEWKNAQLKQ

O5-bA = molecular target: T5, O5-bA; test: two-hybrid library CCNG1;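 note: natural log of median RNA to DNA barcode read ratio; higher means stronger binding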
T5 chain: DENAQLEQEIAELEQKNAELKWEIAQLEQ

O3-bA = molecular target: T6, O3-bA; test: two-hybrid library CCNG1;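 note: natural log of median RNA to DNA barcode read ratio; higher means stronger binding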
T6 chain: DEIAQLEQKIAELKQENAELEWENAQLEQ

O4-bA = molecular target: T7, O4-bA; test: two-hybrid library CCNG1
T7 chain: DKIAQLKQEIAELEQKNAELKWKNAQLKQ

O2-bA = molecular target: T8, O2-bA; test: two-hybrid library CCNG1
T8 chain: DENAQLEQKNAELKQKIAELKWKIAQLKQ

P9A-bH = molecular target: T9, P9A-bH; test: two-hybrid library CCNG1
T9 chain: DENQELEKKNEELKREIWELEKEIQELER

P7A-bH = molecular target: T10, P7A-bH; test: two-hybrid library CCNG1
T10 chain: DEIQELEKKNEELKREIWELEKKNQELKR

P8A-bH = molecular target: T11, P8A-bH; test: two-hybrid library CCNG1
T11 chain: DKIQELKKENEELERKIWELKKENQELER

P8A-bS = molecular target: T12, P8A-bS; test: two-hybrid library CCNG1
T12 chain: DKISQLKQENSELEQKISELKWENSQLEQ

P9A-bS = molecular target: T13, P9A-bS; test: two-hybrid library CCNG1
T13 chain: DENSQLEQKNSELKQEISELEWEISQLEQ

O4 = molecular target: T14, O4; test: two-hybrid library CC0; conditions: mean of both orientations
T14 chain: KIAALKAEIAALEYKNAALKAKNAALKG

O9 = molecular target: T15, O9; test: two-hybrid library CC0; conditions: mean of both orientations
T15 chain: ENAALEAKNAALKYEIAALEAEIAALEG

O8 = molecular target: T16, O8; test: two-hybrid library CC0; conditions: mean of both orientations
T16 chain: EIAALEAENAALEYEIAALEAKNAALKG

O7 = molecular target: T17, O7; test: two-hybrid library CC0; conditions: mean of both orientations
T17 chain: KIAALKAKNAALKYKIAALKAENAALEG

O3 = molecular target: T18, O3; test: two-hybrid library CC0; conditions: mean of both orientations
T18 chain: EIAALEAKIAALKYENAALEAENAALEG

O5 = molecular target: T19, O5; test: two-hybrid library CC0; conditions: mean of both orientations
T19 chain: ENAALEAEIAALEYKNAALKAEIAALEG

O6 = molecular target: T20, O6; test: two-hybrid library CC0; conditions: mean of both orientations
T20 chain: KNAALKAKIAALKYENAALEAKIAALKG

P9mSN = molecular target: T21, P9mSN; test: two-hybrid library CCNG1
T21 chain: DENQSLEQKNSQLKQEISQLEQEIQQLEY

P7mSN = molecular target: T22, P7mSN; test: two-hybrid library CCNG1
T22 chain: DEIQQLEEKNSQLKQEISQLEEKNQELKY

P8mSN = molecular target: T23, P8mSN; test: two-hybrid library CCNG1
T23 chain: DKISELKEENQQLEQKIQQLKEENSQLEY

P7A-bS = molecular target: T24, P7A-bS; test: two-hybrid library CCNG1
T24 chain: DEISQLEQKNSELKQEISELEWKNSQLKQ

- interaction score (O9-bA): 1
- interaction score (O7-bA): -0.0715
- interaction score (O6-bA): -0.5
- interaction score (O8-bA): 0.682
- interaction score (O5-bA): 0.59
- interaction score (O3-bA): -0.0372
- interaction score (O4-bA): -0.35
- interaction score (O2-bA): -0.405
Binder: DENAQLEQKNAELKQKIAELKWKIAQLKQ [O2-bA]

- interaction score (P9A-bH): 0.983
- interaction score (P7A-bH): 1.35
- interaction score (P8A-bH): 0.924
Binder: DKNQELKKEIEELERENWELEKKIQELKR [P6A-bH]

- interaction score (P8A-bS): -0.428
- interaction score (P9A-bS): -0.26
Binder: DKISQLKQENSELEQKISELKWENSQLEQ [P8A-bS]

Binder: EIAALEAKIAALKYENAALEAENAALEG [O3]
- interaction score (O4): 1.48
- interaction score (O9): -2.71
- interaction score (O8): -2.58
- interaction score (O7): -2.77
- interaction score (O3): -2.75
- interaction score (O5): -2.78
- interaction score (O6): -2.66

- interaction score (P9mSN): -0.424
- interaction score (P7mSN): -0.219
- interaction score (P8mSN): 0.927
Binder: DEIQQLEEKNSQLKQEISQLEEKNQELKY [P7mSN]

- interaction score (P8A-bS): 0.493
- interaction score (P9A-bS): -0.768
- interaction score (P7A-bS): -1.32
Binder: DEISQLEQKNSELKQEISELEWKNSQLKQ [P7A-bS]
